Holding throughout (test): pull-down; 2 µg of each GST-, HIS- or MBP-tagged protein mixed in 50 mM Tris-HCl pH 7.4, 150 mM NaCl, 25 mM imidazole, 0.5% NP-40, 4 °C 4 h; HIS-tagged protein captured on Ni-NTA HIS Bind Resin; western blot
Common to all, as to conditions: both partners purified
(In general: A western blot detects proteins with antibodies after separation by electrophoresis.)

For one assay, the target named is T1, SUMO-HIS-RMF1 (Arabidopsis thaliana, UniProt Q9M365 1-359).
T1 construct: RMF1, F-box protein, Arabidopsis thaliana, AGI AT3G61730; CDS cloned into pSUMO (on pET28a); also called AT3G61730; not shown: SUMO, N-terminal, kept; HIS, N-terminal, kept
T1 sequence (looked up): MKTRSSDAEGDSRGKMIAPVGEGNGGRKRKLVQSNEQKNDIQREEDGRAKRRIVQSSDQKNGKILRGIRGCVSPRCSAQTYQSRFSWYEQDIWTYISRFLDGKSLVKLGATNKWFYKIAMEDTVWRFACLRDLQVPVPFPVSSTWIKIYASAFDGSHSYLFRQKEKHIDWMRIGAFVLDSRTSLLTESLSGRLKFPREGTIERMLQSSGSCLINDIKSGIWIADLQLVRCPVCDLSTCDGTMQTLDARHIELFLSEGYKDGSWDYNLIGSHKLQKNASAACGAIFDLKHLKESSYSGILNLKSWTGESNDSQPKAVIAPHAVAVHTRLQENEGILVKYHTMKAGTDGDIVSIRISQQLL

The next assay deals with T2, SUMO-HIS-RMF2 (Arabidopsis thaliana, UniProt Q9FGB8 1-355).
T2 construct: RMF2, F-box protein, Arabidopsis thaliana, AGI AT5G36000; CDS cloned into pSUMO (on pET28a); also called AT5G36000; not shown: SUMO, N-terminal, kept; HIS, N-terminal, kept
T2 sequence (looked up): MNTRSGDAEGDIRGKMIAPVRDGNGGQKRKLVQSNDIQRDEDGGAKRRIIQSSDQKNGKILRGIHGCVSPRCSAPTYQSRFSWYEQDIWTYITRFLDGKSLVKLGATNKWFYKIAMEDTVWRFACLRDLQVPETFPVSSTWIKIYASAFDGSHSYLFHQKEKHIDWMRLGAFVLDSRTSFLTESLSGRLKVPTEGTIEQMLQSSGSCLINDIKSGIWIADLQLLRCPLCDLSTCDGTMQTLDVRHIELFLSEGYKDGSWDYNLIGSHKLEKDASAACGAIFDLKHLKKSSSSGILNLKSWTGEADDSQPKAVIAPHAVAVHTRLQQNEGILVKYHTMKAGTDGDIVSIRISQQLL

A further assay concerns the target T3, MBP-RMF1 (Arabidopsis thaliana, UniProt Q9M365 1-359).
T3 construct: RMF1, F-box protein, Arabidopsis thaliana, AGI AT3G61730; CDS cloned into pMAL-c5X; also called AT3G61730; source: E. coli Rosetta (DE3) or BL21 (DE3) pLysS, purified (Amylose Resin); not shown: MBP, N-terminal, kept
T3 sequence (looked up): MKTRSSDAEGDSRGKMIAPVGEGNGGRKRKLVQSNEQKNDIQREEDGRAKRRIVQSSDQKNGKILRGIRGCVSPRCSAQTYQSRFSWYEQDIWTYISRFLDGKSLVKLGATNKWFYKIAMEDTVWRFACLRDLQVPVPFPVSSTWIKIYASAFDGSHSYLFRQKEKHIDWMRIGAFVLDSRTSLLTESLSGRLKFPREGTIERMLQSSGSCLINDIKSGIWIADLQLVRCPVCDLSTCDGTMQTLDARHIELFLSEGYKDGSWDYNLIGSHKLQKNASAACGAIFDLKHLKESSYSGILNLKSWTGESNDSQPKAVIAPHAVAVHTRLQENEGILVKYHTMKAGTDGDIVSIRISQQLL

Another assay concerns the target T4, MBP-RMF2 (Arabidopsis thaliana, UniProt Q9FGB8 1-355).
T4 construct: RMF2, F-box protein, Arabidopsis thaliana, AGI AT5G36000; CDS cloned into pMAL-c5X; also called AT5G36000; source: E. coli Rosetta (DE3) or BL21 (DE3) pLysS, purified (Amylose Resin); not shown: MBP, N-terminal, kept
T4 sequence (looked up): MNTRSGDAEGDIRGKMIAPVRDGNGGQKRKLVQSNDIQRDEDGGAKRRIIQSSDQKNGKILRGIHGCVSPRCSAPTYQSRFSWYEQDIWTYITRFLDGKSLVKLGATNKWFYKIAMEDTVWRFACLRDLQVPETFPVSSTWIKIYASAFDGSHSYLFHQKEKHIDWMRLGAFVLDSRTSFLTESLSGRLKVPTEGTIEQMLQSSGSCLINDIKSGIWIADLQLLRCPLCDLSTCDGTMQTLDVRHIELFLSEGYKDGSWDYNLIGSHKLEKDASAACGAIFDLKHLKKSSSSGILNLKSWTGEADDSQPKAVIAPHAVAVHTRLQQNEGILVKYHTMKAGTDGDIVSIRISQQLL

B1: GST-ASK1 (natural protein, Arabidopsis thaliana, UniProt Q39255 1-160, looked up)
chain: MSAKKIVLKSSDGESFEVEEAVALESQTIAHMVEDDCVDNGVPLPNVTSKILAKVIEYCKRHVEAAASKAEAVEGAATSDDDLKAWDADFMKIDQATLFELILAANYLNIKNLLDLTCQTVADMIKGKTPEEIRTTFNIKNDFTPEEEEEVRRENQWAFE
notes: ASK1 (Arabidopsis Skp1-like1), Arabidopsis thaliana, AGI AT1G75950; CDS cloned into pGEX 4T-1; also called AT1G75950; not shown: GST, N-terminal, kept
For B1, the binding result in the assay with SUMO-HIS-RMF1 and with SUMO-HIS-RMF2 was “binds” each time.

B2: SUMO-HIS-DMC1 (natural protein, Arabidopsis thaliana, UniProt Q39009 1-344, looked up)
chain: MMASLKAEETSQMQLVEREENDEDEDLFEMIDKLIAQGINAGDVKKLQEAGIHTCNGLMMHTKKNLTGIKGLSEAKVDKICEAAEKIVNFGYMTGSDALIKRKSVVKITTGCQALDDLLGGGIETSAITEAFGEFRSGKTQLAHTLCVTTQLPTNMKGGNGKVAYIDTEGTFRPDRIVPIAERFGMDPGAVLDNIIYARAYTYEHQYNLLLGLAAKMSEEPFRILIVDSIIALFRVDFTGRGELADRQQKLAQMLSRLIKIAEEFNVAVYMTNQVIADPGGGMFISDPKKPAGGHVLAHAATIRLLFRKGKGDTRVCKVYDAPNLAEAEASFQITQGGIADAKD
notes: DMC1, meiosis-specific RecA-family recombinase, Arabidopsis thaliana, AGI At3G22880; CDS cloned into pSUMO (on pET28a); also called At3G22880; not shown: SUMO, N-terminal, kept; HIS, N-terminal, kept
Regarding B2, the binding result with MBP-RMF1 and with MBP-RMF2 was “binds” each time.

B3: SUMO-HIS-DMC1-6KR (natural protein, Arabidopsis thaliana, UniProt Q39009 1-344, looked up)
chain: MMASLKAEETSQMQLVEREENDEDEDLFEMIDKLIAQGINAGDVRRLQEAGIHTCNGLMMHTKKNLTGIRGLSEAKVDKICEAAEKIVNFGYMTGSDALIRRKSVVKITTGCQALDDLLGGGIETSAITEAFGEFRSGKTQLAHTLCVTTQLPTNMKGGNGRVAYIDTEGTFRPDRIVPIAERFGMDPGAVLDNIIYARAYTYEHQYNLLLGLAAKMSEEPFRILIVDSIIALFRVDFTGRGELADRQQKLAQMLSRLIKIAEEFNVAVYMTNQVIADPGGGMFISDPKRPAGGHVLAHAATIRLLFRKGKGDTRVCKVYDAPNLAEAEASFQITQGGIADAKD
notes: DMC1, Arabidopsis thaliana, AGI At3G22880; CDS with all six lysines K45, K46, K70, K101, K162 and K290 changed to arginine, cloned into pSUMO (on pET28a); not shown: SUMO, N-terminal, kept; HIS, N-terminal, kept
B3: the binding result with MBP-RMF1 and with MBP-RMF2 was “binds” each time.

The values are drawn from article PMC10439943, “SCF^RMF mediates degradation of the meiosis-specific recombinase DMC1” (Nature Communications, 2023).
